Laboratory results as given in patent US20240400703A1 (Genmab, published 2024).

What was measured:
[1] = biological target: T1, mouse OX40 expressed on ExpiCHO-S cells (mouse, UniProt P47741 20-272); experiment: flow cytometry, transfected ExpiCHO-S cells, gMFI (PE)
T1 construct: full-length entry; also called OX40mm; wild-type mouse OX40
T1 sequence: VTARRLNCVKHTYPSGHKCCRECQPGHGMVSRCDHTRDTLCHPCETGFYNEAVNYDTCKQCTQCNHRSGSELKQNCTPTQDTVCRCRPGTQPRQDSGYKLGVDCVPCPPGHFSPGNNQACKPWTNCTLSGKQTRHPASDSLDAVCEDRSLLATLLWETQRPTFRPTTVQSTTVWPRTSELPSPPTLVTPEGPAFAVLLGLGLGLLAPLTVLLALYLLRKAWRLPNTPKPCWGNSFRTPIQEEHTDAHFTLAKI

[2] = biological target: T2, human OX40 with mouse CRD2 (human with mouse CRD2, UniProt P43489 29-277); experiment: as above
T2 construct: on ExpiCHO-S cells; also called OX40-CRD2mm; Shuffle 2
T2 chain: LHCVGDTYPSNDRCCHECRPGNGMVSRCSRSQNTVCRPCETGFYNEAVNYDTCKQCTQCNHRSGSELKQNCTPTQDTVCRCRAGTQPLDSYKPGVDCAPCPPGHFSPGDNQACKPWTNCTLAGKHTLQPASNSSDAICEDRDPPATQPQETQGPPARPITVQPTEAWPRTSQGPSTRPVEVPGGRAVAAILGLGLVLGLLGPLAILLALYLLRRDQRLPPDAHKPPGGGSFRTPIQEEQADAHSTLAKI

[3] = biological target: T3, human OX40 with mouse CRD4 (human with mouse CRD4, UniProt P43489 29-277); experiment: as above
T3 construct: on ExpiCHO-S cells; also called OX40-CRD4mm; Shuffle 4
T3 chain: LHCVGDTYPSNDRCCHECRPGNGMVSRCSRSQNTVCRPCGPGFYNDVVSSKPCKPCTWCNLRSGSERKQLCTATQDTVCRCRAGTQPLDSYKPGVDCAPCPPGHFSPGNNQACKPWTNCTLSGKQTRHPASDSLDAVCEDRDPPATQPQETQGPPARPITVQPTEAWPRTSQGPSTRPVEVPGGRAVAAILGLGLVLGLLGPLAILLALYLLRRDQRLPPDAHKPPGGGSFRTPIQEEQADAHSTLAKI
Description: (§1) The four shuffle constructs, as well as wild-type human and mouse OX40 were transiently expressed on ExpiCHO-S cells using the ExpiFectamine™ CHO Transfection Kit (ThermoFisher, cat. no. A29131), according to the manufacturer's protocol. […] Next, cells were washed twice in FACS buffer 1, were resuspended in a 30 μL solution of viability marker ToPro-3 (Invitrogen, cat. no. T3605, diluted 1:10,000) in FACS buffer 1 supplemented with 2 mM EDTA, and were analyzed on an iQue Screener Plus (Intellicyt Corporation, USA). Data were analyzed using FlowJo software and visualized using GraphPad Prism.

[4] = biological target: T4, human OX40 expressed on cells (human, UniProt P43489 29-277); experiment: flow cytometry, OX40-transfected HEK293F cells, gMFI (PE)
T4 construct: also called CD134; TNFRSF4
T4 sequence: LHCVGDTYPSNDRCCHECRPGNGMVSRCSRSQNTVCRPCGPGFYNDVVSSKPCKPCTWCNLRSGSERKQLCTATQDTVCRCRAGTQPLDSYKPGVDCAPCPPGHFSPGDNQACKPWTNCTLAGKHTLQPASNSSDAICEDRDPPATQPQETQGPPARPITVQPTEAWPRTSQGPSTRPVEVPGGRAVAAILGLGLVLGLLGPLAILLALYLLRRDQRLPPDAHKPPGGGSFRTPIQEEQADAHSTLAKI
Description: (§2) Transfected cells were seeded in 96-well plates (30,000 cells/well; ThermoFisher, cat. no. 163320) for sequential incubations, with washing steps in between using fluorescence-activated cell sorting (FACS) buffer 1 (phosphate buffered saline [PBS; Lonza, cat. no. BE17-517Q] supplemented with 0.1% bovine serum albumin [BSA; Roche, cat. no. 10735086001] and 0.02% sodium azide [NaN₃; Bio-World, cat. no. 41920044-3]) supplemented with 2 mM ethylenediaminetetraacetic acid (EDTA; Sigma-Aldrich, cat. no. 03690). […] Cells were then washed using EDTA-supplemented FACS buffer 1, resuspended in a 30 μL solution of viability marker ToPro-3 (Invitrogen, cat. no. T3605, diluted 1:10,000) in EDTA-supplemented FACS buffer 1, and subsequently analyzed on an iQue® 3 flow cytometer (Satorius). Data were analyzed using FlowJo software and were visualized using GraphPad Prism.

[5] = biological target: T5, cynomolgus monkey OX40 expressed on HEK293F cells (cynomolgus monkey (Macaca fascicularis), UniProt P43489 29-277 (human entry)); experiment: as above
T5 construct: full-length entry
T5 chain: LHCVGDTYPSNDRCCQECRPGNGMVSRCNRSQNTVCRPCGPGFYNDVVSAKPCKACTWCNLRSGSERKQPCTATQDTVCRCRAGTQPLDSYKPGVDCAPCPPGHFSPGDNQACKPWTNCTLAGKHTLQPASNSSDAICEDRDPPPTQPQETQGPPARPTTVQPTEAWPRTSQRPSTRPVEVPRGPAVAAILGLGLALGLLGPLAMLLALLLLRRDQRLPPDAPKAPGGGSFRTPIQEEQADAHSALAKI
Description: as §2

[6] = biological target: T6, human OX40 with mouse CRD1 (human with mouse CRD1, UniProt P43489 29-277); experiment: flow cytometry, transfected ExpiCHO-S cells, MFI at 5 µg/mL as % of IgG1-CD134-A4453
T6 construct: on ExpiCHO-S cells; also called OX40-CRD1mm; Shuffle 1
T6 chain: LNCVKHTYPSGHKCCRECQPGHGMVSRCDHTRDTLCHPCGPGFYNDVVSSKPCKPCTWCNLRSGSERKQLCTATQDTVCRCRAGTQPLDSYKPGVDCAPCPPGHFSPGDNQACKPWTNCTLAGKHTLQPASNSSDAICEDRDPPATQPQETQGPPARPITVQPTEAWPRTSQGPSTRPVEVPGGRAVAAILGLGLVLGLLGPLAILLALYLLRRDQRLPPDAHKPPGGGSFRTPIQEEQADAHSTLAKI
Description: as §1

[7] = biological target: T7, human OX40 with mouse CRD3 (human with mouse CRD3, UniProt P43489 29-277); experiment: as above
T7 construct: on ExpiCHO-S cells; also called OX40-CRD3mm; Shuffle 3
T7 chain: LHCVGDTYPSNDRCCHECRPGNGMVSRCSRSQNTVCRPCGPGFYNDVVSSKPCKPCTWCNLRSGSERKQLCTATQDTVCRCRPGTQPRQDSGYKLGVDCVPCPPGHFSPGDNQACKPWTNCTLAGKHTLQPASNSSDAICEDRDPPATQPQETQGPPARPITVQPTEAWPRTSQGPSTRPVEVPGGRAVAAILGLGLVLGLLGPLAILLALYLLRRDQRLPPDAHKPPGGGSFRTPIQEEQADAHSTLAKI
Description: as §1

[8] = biological target: T2, human OX40 with mouse CRD2; experiment: as above
Description: as §1

B1: IgG1-CD134-007-RR (antibody)
heavy: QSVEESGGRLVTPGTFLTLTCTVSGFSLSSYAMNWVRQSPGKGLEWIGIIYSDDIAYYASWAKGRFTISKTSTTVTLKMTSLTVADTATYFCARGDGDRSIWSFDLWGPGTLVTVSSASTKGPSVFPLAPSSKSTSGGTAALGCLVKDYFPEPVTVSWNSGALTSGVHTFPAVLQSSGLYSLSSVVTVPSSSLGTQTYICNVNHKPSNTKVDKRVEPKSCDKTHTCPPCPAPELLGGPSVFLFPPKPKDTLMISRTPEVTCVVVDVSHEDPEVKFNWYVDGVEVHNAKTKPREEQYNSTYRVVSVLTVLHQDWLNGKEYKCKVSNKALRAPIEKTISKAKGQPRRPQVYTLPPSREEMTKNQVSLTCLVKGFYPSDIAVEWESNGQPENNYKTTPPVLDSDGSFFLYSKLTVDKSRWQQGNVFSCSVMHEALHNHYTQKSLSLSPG
light: AQVLTQTPSPVSAAVGGTVTISCQSSESVWNNNWLAWYQQKPGQPPNLLIYEASTLASGVSSRFKGSGSGTQFTLTVSEVQSDDAATYYCQGGYYDSSPIWTFGGGTEVVVKRTVAAPSVFIFPPSDEQLKSGTASVVCLLNNFYPREAKVQWKVDNALQSGNSQESVTEQDSKDSTYSLSSTLTLSKADYEKHKVYACEVTHQGLSSPVTKSFNRGEC
notes: non-humanized 007 variable regions; also called IgG1-CD134-007-P329R-E345R
B1: no binding (tested: 50 µg/mL) [1]; no binding (tested: 50 µg/mL) [2]; binds [3]. For the same binder, the “EC50 (read off the curve)” value [4] was roughly 0.05 µg/mL, the “EC50 (read off the curve)” value [5] was roughly 0.04 µg/mL and the binding result [6] was “binds”. B1: binds [7].

B2: IgG1-CD134-012-RR-K409R (antibody)
heavy: QSLEESGGRLVTPGTPLTLICTVSGIDLSSGAMGWVRQAPGKGLEYIGYIYTGSGTTSYASWVNGRFTISMTSTTVDLKITSPTTEDTATYFCARDAASSYWGHFTLWGQGTLVTVSSASTKGPSVFPLAPSSKSTSGGTAALGCLVKDYFPEPVTVSWNSGALTSGVHTFPAVLQSSGLYSLSSVVTVPSSSLGTQTYICNVNHKPSNTKVDKRVEPKSCDKTHTCPPCPAPELLGGPSVFLFPPKPKDTLMISRTPEVTCVVVDVSHEDPEVKFNWYVDGVEVHNAKTKPREEQYNSTYRVVSVLTVLHQDWLNGKEYKCKVSNKALRAPIEKTISKAKGQPRRPQVYTLPPSREEMTKNQVSLTCLVKGFYPSDIAVEWESNGQPENNYKTTPPVLDSDGSFFLYSRLTVDKSRWQQGNVFSCSVMHEALHNHYTQKSLSLSPG
light: DIVMTQTPASVEAAVGGTVTIKCQASENIYSSLAWYQQKPGQPPKLLIYRTSTLASGVPSRFKGSGSGTQFTLTISDLESDDAATYYCQSYYHNSGGGYDYGFGGGTEVVAKRTVAAPSVFIFPPSDEQLKSGTASVVCLLNNFYPREAKVQWKVDNALQSGNSQESVTEQDSKDSTYSLSSTLTLSKADYEKHKVYACEVTHQGLSSPVTKSFNRGEC
notes: also called IgG1-CD134-012-P329R-E345R-K409R
For B2, the binding result [1] was “no binding (tested: 50 µg/mL)”, the binding result [3] was “binds” and the “EC50 (read off the curve)” value [4] was roughly 0.05 µg/mL. The “EC50 (read off the curve)” value [5] was roughly 0.06 µg/mL, the binding result [8] was “binds” and the binding result [7] was “binds”.
